Among the data in article PMC2567903 are percent of the EspFU shifted into the EspFU-N-WASP-Arp2/3 complex, Kd and stoichiometry N values, retold here.

In assay [1] the target is N-WASPC in complex with Alexa647-labeled EspFU R′5 (UniProt O08816). The experiment in a line: SEC. For orientation: In gel filtration, larger molecules generally elute earlier.
Another assay has as its target EspFU R′1-5 (UniProt P0DJ88). The assay can be described thus: ITC.
Another assay deals with EspFU R′4-5 (UniProt P0DJ88). The assay can be described thus: ITC. For orientation: ITC needs no label: the signal is the heat of the interaction.
The next assay addresses EspFU R′5 (UniProt P0DJ88). The assay can be described thus: ITC.

WASP GBD (residues 242–310), sequence (P42768 242-310): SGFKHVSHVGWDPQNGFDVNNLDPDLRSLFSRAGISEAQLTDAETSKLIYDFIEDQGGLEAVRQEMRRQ
EspFU R′1-5, sequence (P0DJ88 80-314): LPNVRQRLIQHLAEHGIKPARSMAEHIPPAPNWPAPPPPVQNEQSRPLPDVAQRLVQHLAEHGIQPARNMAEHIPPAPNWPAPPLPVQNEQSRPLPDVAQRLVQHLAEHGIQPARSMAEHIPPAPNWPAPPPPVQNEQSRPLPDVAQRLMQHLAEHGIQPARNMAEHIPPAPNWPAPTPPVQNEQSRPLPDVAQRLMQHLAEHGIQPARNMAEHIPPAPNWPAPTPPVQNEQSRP
EspFU R′4-5, sequence (P0DJ88 221-314): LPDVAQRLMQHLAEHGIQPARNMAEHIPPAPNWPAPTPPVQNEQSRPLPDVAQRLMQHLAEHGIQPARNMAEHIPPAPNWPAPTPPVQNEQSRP
EspFU R′5, sequence (P0DJ88 221-267): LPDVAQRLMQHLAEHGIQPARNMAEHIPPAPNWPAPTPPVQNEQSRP
N-WASPC in complex with Alexa647-labeled EspFU R′5, sequence (O08816 193-501, chain 1 of 2): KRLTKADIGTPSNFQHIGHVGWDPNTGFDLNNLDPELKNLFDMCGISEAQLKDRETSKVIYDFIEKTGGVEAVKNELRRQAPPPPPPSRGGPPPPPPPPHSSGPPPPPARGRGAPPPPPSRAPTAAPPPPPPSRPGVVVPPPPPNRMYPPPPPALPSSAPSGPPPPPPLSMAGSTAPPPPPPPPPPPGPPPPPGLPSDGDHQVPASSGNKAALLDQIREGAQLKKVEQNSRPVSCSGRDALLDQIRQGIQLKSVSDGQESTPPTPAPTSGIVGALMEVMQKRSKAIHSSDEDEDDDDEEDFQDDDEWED
N-WASPC in complex with Alexa647-labeled EspFU R′5, sequence (P0DJ88 221-267, chain 2 of 2, further chain): as the sequence (P0DJ88 221-267) above

As to Arp2/3 complex, in assay [1], the percent of the EspFU shifted into the EspFU-N-WASP-Arp2/3 complex was determined as 60%.

For “WASP GBD (residues 242–310) (from UniProt P42768 242-310) (domain or fragment)”, the Kd (in general, the constant that tells how readily two partners part at equilibrium) in the assay with EspFU R′1-5 worked out at 83 nM; with EspFU R′4-5, 95 nM; in the assay with EspFU R′5 it was 89 nM. Moreover, the values for the stoichiometry N with EspFU R′1-5, with EspFU R′4-5 and in the assay with EspFU R′5 were 5.7, 1.8 and 1, respectively.
